Assay results as given in PMC2881571 (Molecular microbiology, 2009).
Substitutions are numbered along the chain they refer to. Names may count otherwise. Where two headings read alike, the source gives them in different places.

B1: 6His-OspR C24S (natural protein, Pseudomonas aeruginosa MPAO1, UniProt Q9I018 1-163, looked up)
chain: MSTRGKVARPDGVEESLLLDNQLSFKLYAASRAVIRGYRPLLEQIGLTYPQYLVMLVLWEWHASPPEQPTVKALGDRLLLDSGTLTPLLKRLEQLGLVDRRRASHDEREVHLTLTVPGITLRERVIPLRQQLICSTGFDLNEMFDLHQRLGGLLSRFRLVVGG
B2: hmgA-p (PA2009-PA2010 intergenic, 70 bp) (dsDNA)
DNA 1: TGGCACGCTGGCTGCGTTATTTTTATCGTAATTCAATTACGCATAACGTAATTTGAGTGGAAGGCAGCGT
DNA 2: ACGCTGCCTTCCACTCAAATTACGTTATGCGTAATTGAATTACGATAAAAATAACGCAGCCAGCGTGCCA
B3: B2d (B2 lacking AATTnAATT, 34 bp) (dsDNA)
DNA 1: TTCAATCAAGTTGTGTGCGCGAGCTACTTTATTT
DNA 2: AAATAAAGTAGCTCGCGCACACAACTTGATTGAA
B4: PA1897-p (70 bp) (dsDNA)
DNA 1: GGCAGGTTGTCCCTGCCGGGCTGTGACAATTTAATTCGACCAGGCATTTCATTGTCCGTGCCGATTTTCA
DNA 2: TGAAAATCGGCACGGACAATGAAATGCCTGGTCGAATTAAATTGTCACAGCCCGGCAGGGACAACCTGCC
B5: B2 (PA2826 promoter, 43 bp) (dsDNA)
DNA 1: TTCAATCAAGTTGTGTGCAATTGAATTGCGAGCTACTTTATTT
DNA 2: AAATAAAGTAGCTCGCAATTCAATTGCACACAACTTGATTGAA

Assays:
[1] = biological target: the molecule itself; assay: cross-linking
[2] = biological target: T1, 6His-OspR (Pseudomonas aeruginosa MPAO1, UniProt Q9I018 1-163); assay: EMSA
T1 sequence: B1 chain with S24C

[3] = biological target: T1, 6His-OspR; assay: EMSA; remark: listed apart in the source
[4] = biological target: T2, 6His-OspR C24S (Pseudomonas aeruginosa MPAO1, UniProt Q9I018 1-163, C24S); assay: EMSA
T2 sequence: B1 chain

Binder | binding result [2] | also measured
B1 | – | binding result [1]: binds
B2 | binds | –
B3 | no binding | –
B4 | binds | –
B5 | – | binding result [3]: binds; binding result [4]: binds
